Values of other authors as cited in article PMC3012698, “Characterization of a Novel Interaction between Bcl-2 Members Diva and Harakiri” (PLoS ONE, 2010).
Like-named read-outs stand apart in the source and are kept apart here. Each block holds one substance with its values, some of them ahead of it.

Tests used:
[1] = target: Mcl-1 (UniProt Q07820)
[2] = target: BFL-1 (Homo sapiens) (UniProt Q16548)
[3] = target: BFL-1 (Homo sapiens) (UniProt Q16548); remark: listed apart in the source
[4] = target: Bcl-2 (Homo sapiens) (UniProt P10415)
Chain of Bcl-2 (Homo sapiens) (P10415 whole entry): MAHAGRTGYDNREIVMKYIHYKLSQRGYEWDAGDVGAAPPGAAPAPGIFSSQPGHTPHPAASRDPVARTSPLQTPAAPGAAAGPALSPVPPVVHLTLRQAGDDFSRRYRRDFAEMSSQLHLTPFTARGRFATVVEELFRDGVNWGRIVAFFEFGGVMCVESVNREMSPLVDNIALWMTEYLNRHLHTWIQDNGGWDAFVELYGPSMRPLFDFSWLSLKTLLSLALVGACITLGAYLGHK

[5] = target: Bcl-w (Homo sapiens) (UniProt Q92843)
Chain of Bcl-w (Homo sapiens) (Q92843 2-193): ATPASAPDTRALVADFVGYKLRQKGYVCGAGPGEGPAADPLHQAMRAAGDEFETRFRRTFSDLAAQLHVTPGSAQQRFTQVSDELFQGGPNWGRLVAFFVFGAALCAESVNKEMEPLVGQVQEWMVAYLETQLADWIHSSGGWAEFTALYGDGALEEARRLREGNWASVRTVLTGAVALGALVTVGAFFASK

[6] = target: Mcl-1 (UniProt Q07820); remark: listed apart in the source
[7] = target: Bcl-2 (Homo sapiens) (UniProt P10415); remark: listed apart in the source

Chain of Bik BH3 (Q13323 51-75): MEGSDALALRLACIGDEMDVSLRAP
Chain of BFL-1 (Homo sapiens) (Q16548 whole entry): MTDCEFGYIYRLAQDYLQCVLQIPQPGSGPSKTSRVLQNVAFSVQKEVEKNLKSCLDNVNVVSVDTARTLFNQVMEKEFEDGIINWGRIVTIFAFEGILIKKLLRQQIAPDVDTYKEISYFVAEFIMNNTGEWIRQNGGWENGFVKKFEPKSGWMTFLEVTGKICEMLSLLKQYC
Chain of Mcl-1 (Q07820 whole entry): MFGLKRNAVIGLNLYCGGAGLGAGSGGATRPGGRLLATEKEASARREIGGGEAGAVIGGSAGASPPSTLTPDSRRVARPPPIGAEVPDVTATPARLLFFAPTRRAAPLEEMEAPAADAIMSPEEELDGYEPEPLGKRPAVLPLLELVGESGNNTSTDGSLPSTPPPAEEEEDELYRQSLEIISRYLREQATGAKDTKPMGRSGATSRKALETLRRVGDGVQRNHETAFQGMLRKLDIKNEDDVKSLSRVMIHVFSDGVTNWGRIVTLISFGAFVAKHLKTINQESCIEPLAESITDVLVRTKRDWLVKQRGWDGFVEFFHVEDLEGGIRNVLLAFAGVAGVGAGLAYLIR
Chain of Noxa BH3 (Q13794 19-43): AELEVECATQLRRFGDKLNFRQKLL

- Kd [1]: 0.109 µM
- Kd [2]: > 2.5 µM
Substance: Bik BH3 (from UniProt Q13323)

- Kd [3]: > 2.5 µM
- Kd [4]: > 2.5 µM
- Kd [5]: > 2.5 µM
Substance: Harakiri BH3 (from UniProt O00198)

- Kd [6]: 0.025 µM
- Kd [7]: > 2.5 µM
Substance: Noxa BH3 (from UniProt Q13794)
